Reference: US20230295305A1

Target: biotinylated pHLA: HLA subtype A*02:01 complexed with … (HLA-PEPTIDE target G8) (human)
Assay: MSD U-PLEX, periplasmic extract on biotinylated pHLA; ratio of target signal to OTLA signal

Negative control (MSD screen)
Average Target/OTLA: 1
Target/OTLA 61: 1
Target/OTLA 67: 2
Target/OTLA 246: 1
Target/OTLA 250: 1
